Experiment: yeast display, Sf9 membrane polyspecificity reagent, FACS + sequencing; frameworks hold sequencing errors
Method in brief: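 Nanobodies from a synthetic yeast display library (Saccharomyces cerevisiae BJ5465), induced 36–48 hours with galactose, were stained 1 hour at 4 °C with 10% biotinylated, detergent-solubilized Sf9 membrane reagent, enriched on streptavidin microbeads, then FACS-sorted. Anti-HA (expression) and streptavidin (reagent binding) fluorescence set low and high (top ~1%) gates. Polyreactivity labels come from the gate of origin. Genes were colony-PCR amplified, MiSeq 2 × 250 sequenced and filtered by CDR length.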

Sequence	polyreactivity (PSR sort gate)
QVQLVESGGGLVQAGGSLRLSCAASGFTFGYYTMGWYRQAPGKERELVASISWDGGSTYYADSVKGRFTISRDNAKNTVYLQMHSLKPEDTAVYYCATDDYDQLAVGAYDYWGQGTQVTVSS	low polyreactivity
QVQLVESGGGLVQAGGSLRLSCAASGRTFTNYAMRWYIPAPGKERELVAAAITVGGGRTYYADSVKGRFTISRENAKNTVYLQMNSLKPEDTAVYYCATDFGTYWYEYWGQGTQVTVSS	high polyreactivity
QVQLVESGGGLVQAGGSLRLSCAASGSTFAASVMGWYRQAPVKERELVAAISTSGGGTYYADSVKGRFTISRDNAKNTVYLQMNSLIPEDTAVYYCAADYGSGSVSYDYWGQGTQVTVSS	low polyreactivity
QVQLVESGGGLVQAGGSLRLSCAASGSIFRGYTMGWYRQAPGKERELVATISWSGGSTYYADTVKGRFTISRDNAKNTVYLQMNSLKREDTAVYYCDARNQCRGYYWGEGTQVTVSS	high polyreactivity
QVQLVESGGGLVQAGGSLRLSCAASGRIFYSYAMGWYRQAPGKERELVAAISRSGGRTYYADSVKGRFTISRDNAKNTVYLQMNSLKPEDTAVYYCNAYRPRFSTRVDYWGQGTQVTVSS	high polyreactivity
QVQLVESGGGLVQAGGSLRLSCAPSGYIFAPNAMGWYRQAPGKERELVAAITFSGGSTSYADSVKGRFTISRDNAKNTVYLQMNSLKPEDTAVYYCAAYWYSLYYLFPYDYWGQGTLVTVSS	low polyreactivity
QVHLVESAGGLVHAGGSHRLSCAASGFIFYRNAMGCYRQEPGKERELVAAISYRGARTYYADSVKGRFTISRDYEKNTVYLQMNSLKPEDTAVYYCAAQGVSSPGVDSWGQGTQVTVSS	high polyreactivity
QVQLVESGGGLVQAGGSLRLSCAASVFIFDTYTMGWYRQAPGKERELVAAITGSGVNTYYADSVKGRFTISRDNAKNTVYLQMNSLKPEDTAVYYCAARRKNRRDYDYYYWGQGTQVTVSS	high polyreactivity
QVQLQESGGGLVQAGGSLRLSCAASGSIFDTPTMGWYRQAPGKERELVASIAYDDNTYYADSVKGRFTISRYNAKHTVYLQMNSLKPGDTAVYYCAVTDRIYYYFVYWGQGTRVTVSS	high polyreactivity
QVQLVESGGGLVQAGGSLRLSCAASGFTFYNYAMGWYRQAPGKERELVAAITSRGGSTYYADSVKGRFTISRDNAKNTVYLQMNSLKPEDTAVYYCNAVAKLYYWRYDYWGQGTQVTVSS	low polyreactivity
QVQLVESGGGLVQAGGSLRLRCAASGNIFLSYAMGWYRQAPGKERELVAGISASGGRTYYADSVKGRFTISRDNAKNTVYLQMNSLKPEDTAVYYCATRGQTRTTTRYYSWGQGTQVTVSS	high polyreactivity
QVQLVESGGRLVQAGGSLRLSCAASGSTFTRYVMGWYRQAPGKERELVAVISSSGGSTYYADSVKGRFTISRDNAKNTVYLQMNSLKPEDTAVYYCAARYSAKHYGYGYWGQGTQVTVSS	high polyreactivity
QVQLVESGGGLVQAGGSLRLSCAASGFTFKLNAMGWYRPAPGKERELVAAISWGGGTTYYADSVKGRFTISRDNAKNTVYLQMNSLKPEDTAVYYCAADGTGTYDYWGQGTQVTVSS	low polyreactivity
QVQLVESGGGLVQAGGSLRLSCAASGFTFGSNAMGWYRQAPGKERELVAAISYSGTRTYYADSVKGRFTISRDNAKNTVYLQMNRLKPEDTAVYYCAAGFRKTQFNVRYYYWGHGTQVTVSS	high polyreactivity
QVQLVESGVGLLQAGGILRISCASSGITFAWYAMVRYRQAPGKERELVAAIDDRGGSTYYADSVKGRFTISRDNAKNTVYFQMNSLKPEDTAVFYCNADTPSYEPYRLDYWGHGTQVTVSS	low polyreactivity
QVQLVESGGGLVQAGGSLRLSCAASGSTFYYNTLGWYRQAPGKERELVAAISRSGGSTYYADSVKGRFTISRDNAKNTVYLQMNSLKPEDTAVYYCAARIIGARNLYGYWGQGTQVTVSS	high polyreactivity
QVQLVESGGGLVQAGGSLRLSCAASGITFPYYAMGWYRQAPGKERELVAAINGNGGRTYYADSVKGRFTISRDNAKNNVYLDMNSLKPEDTAVYYCADRVVHVKGPRMDYWGQGTQVTLSS	high polyreactivity
QVQLVESGGGLVQAGGSLRLSCAASGFTLATYAMGWYRQAPGKERELVAAITRSGGSTYYADSVKGRFTISRDNAKNTVYLQMNSLKPEDTAVYYCNAREVRYEYNYWGQGTQVTVSS	low polyreactivity
QVQLVESGGGLVQAGGSLRLSCAASGSTFGEYAMGWYRQAPGKERELVASITFSAGSTDYADSVKGRFTISRDNAKNTVFLQMNSLKPEDTSVYYCAADGWWPWEYEYWGQGTQVTVSS	low polyreactivity
QVQLVESGGGLVQAGGSLRLICAASGGTFYPYTMGGYRQAPGKERELVAAISRRSGRTYYADSVKGRFTISRDNAKNTVYLQMNSLKPEDTAVYYCNADGYTRAFDYWGQGTQVTVSS	high polyreactivity
QVQLVESGGGLVQAGGSLRLSCAASGFIFAYYAMGWYRQAPGKERELVAAISSSGGSTYYADSVKGRFTISRDNAKNTVYLQMNSLKPEDTAVYFCNRRWVAPYFYSRYYSGQEEGYWGQGTQVTVSS	high polyreactivity
QVQLVESGGGLVQAGGSLRLSCAASGRIFGPDAMRWYRQAPRKERELVAAITWRGDRTYYADSVKGRFTISRDIAKNSVYLQINSLKPEDTAVYYCAARGGRSEYDYWGQATQVTVSS	low polyreactivity

Sequence	polyreactivity (PSR sort gate)
QVQLVESGGGLVQAGGSLRLSCAASGRIFGVYAMGWYRQAPGKERELVAAISEGGGSTNYADSVKGRFSISRDNAKNTVYLQMNSLKPEDTAVYYCAATYRTGVRRYYSWGQGTQVTVSS	low polyreactivity
QVQLVESGGGLVQAGGSLRLSCAASGSIFGRYAMGWYRQAPGKERELVAAIDGGGSTNYADSVKGRFTISRDNAKNTVYVQMNSLKPEDTAVYYCATEAKAYRYYYRTRHYYYWGQGTQVTVSS	low polyreactivity
QVQLVEAGGGLVQAGGSLRLSGAASGSIFDYNAMGWYRQAPGKERELVASISYSGGSTYYADSVKGRFTISRDTAKNTVYLQMNSLKPEDTAVYYCNARFYWRWHTAYDYWGQGTQVTVSS	high polyreactivity
QVQLVESGGGLVQAGGSLRLSCAASGSIITYYAMGWYRQAPGKDSELVAVISASGGRTYYADSVKGRFTISRDNAKNTVYLQMISLKPEDTAVYYCAAYQSIYSFKFGYWGQGTQVTVSS	high polyreactivity
QVQLVESGGVLVQAGGSLRLSCAASGFTFVWYAMGWYRQAPGKERELVAAISRRGTRTYYADSVKGRFTISRDNAKNTVYLQMNSLKPEDTALYYCAASNGYQAVTYDYWGQGTQVTVSS	high polyreactivity
QVHLVESGGGLVQAGGSLRLSCAASGRTFTRYTMGCYRQAPGKESELVAAISRRGGSTYYADSVKGRFTISRHNAKNTVYLQMNSLKPEDTAFYYCNADYVPGRPSFIYDYWGQGTQVTVSS	high polyreactivity
QVQLVESGGGLVQAGCSLRLSCAATGSFFGFYSMGWYRQAPGKEMELVASITISGGSTYYADSVKGRFTISRDNAKNNVYLQMNSLKLEDTAVYFCAAETYAYLFHTYDYWGQGTHVTVSS	low polyreactivity
QVQLVDSGGGLVQAGGSLRLSCAASGRTIYLYAMACYRQAPGKERELVAAISERGGRTYYADSVKGRFTISRDNAKNTVYLQMNSLKPEDTAVYYCAAVKGYNYGYWGQGTQVTVSS	high polyreactivity
QVQLVESGGGLVQAGGSLRLSCAASGSIFIYNAMGWYRQAPGKERELVAAISSSGGSTYYADSVKGRFTISRDNAKNTVYLQMNSLKPEDTAVYYCAARTYYVRGLGGRPGMDYCGQGTQVTVSS	low polyreactivity
QVQLVESAGGLVQAGGSLRLSCAASGSTFTYKGMGWYRQAPGKERELVASISSRGGSTYYADSVKGRFTISRDNAKNTVYLQMNSLKPDDTAVYYCAAVARARARTPWLGRGYWGQVTQVTVSS	high polyreactivity
QVQLVESGGGLVQAGGSLRLSCDASGFISRYAMGWYRQAPGKERELVAAINRSGGRTYYADSVKGRFTISRDNAKNTVYLQMNSLTPEDTAVYYCAALRGRYYGVLGEYWGQCTQVTVSS	high polyreactivity
QVQLEESGGGLVQAGFSLRLSCAASGRIFVPNAMGWSRPAPGKEGELVAAIRWTGGSTYYADSVQGRFTISRDNAKNTVYLQMNSLKPEDTAVSYCAARYAARRLTYFWPQYARYDYWGQGTQVTVSS	high polyreactivity
QVQLVESGGGLVQAGGSLRLSCAASGRIFYPYAMGWYIQAPGKERELVADISIGGSTNYADSVKGRFTISRDNAKNTVYLQMNSLKPEDTAVYYCNAGGGFYGSTVEHDYWGQGTQVTVSS	low polyreactivity
QVQLVESGGGLVQAGGSLRLSCAASGNIFTLNTSGCYRQAPGKERELVARITSGDRKYYADSVKGRFTISRDNAKNTVYLQMNSLKPEDTAVYYCAARRPAYYSFWVTGYNYWGQGTQVTVSS	high polyreactivity
QVPLVESGGGLVQAGGSLRLSCAASGFIFYANAMGWYRQAPGKERELVAAISWDGGRTYYADSVKGRFTISRDNAKNTVYLQMNSLKPDDTAVYSCNALATDLDYWGQGTQVTVSS	low polyreactivity
QVQHVESGGGLVQAGCSLRLSCAASGSIFVIYAMGWYRQAPGKERELVAAIRSTGSSNYADSVKGRFTISRDNAKNTVYLQMNSLKPEDTAVYYCAAYRRRTYAVNIEGGYWGQGTQVTVSS	high polyreactivity
QVQLVESGGGLVQAGGSLRLSCAGSGSIFSIYAMGWYRQAPGKERELVAAIRYDGGSTYYADSVKGRFTISRDNAKNTVYLQMNSLKPEDTAVYYCAAKVYFRRRGLHPYDYWGQGTQVNVSS	low polyreactivity
QVQLVESGGGLVQAGGSLRLSCAASGGILDTYAMGWYRQAPGKERELVAAITSGGNTNYADSVKGRFTISRDNAKNTVYLQMNSLKPEDTAVYYCNVVTWYYVFRPWEYDYWGQGTQVTVSS	low polyreactivity
QVELVESGGGLVQAGGSLRLSCAASGITFYVYTMGWYRQAPGKERELVAAINGSGGSTNYADSVKGRFTISRDIAKNTVFLQMNSLKPEDSAVYYCAADWSLRLYDYWGQGTQVTVSS	low polyreactivity
QVQLVESGGGLVQAGGSLRLSCAASGRTFIRYAMGWYRQAPGNERELVAAISWSGDRTYYADSVKGRFTISRDNAKNTVYLQMNSLKPEDTAVYYCNAYRYLRTATFLKFDYWGQGTQVTVSS	high polyreactivity
QVQLVESGGGLVQAGGSLRLSCAASGSIFVPYDMGWYRQAPGKERELVAVISTDDGTYYADSVKGRFTISRDNAKNTVYLQMNSLKPEDTAVYYCAADRWYREYDYWGQGTQVTVSS	low polyreactivity
